Data set [1] deals with CD166^+HCT15 xenograft mice. As to the kind of experiment: in vivo. To be noted: mouse. The procedure: (§1) CD166^+HCT15 cells were subcutaneously injected into the right hindlimb of mice for establishing CD166-expressed CRC xenograft mouse model. After tumor formation, the ^111In-DTPA, ^111In-DTPA-G18C, ^111In-DTPA-CD166tp-C, and ^111In-DTPA-CD166tp-G18C (148 MBq/kg/mouse) were intravenously injected into mice […]. After 2, 4, 24, and 48 h post-injection, mice were sacrificed and collected blood and organs including the brain, heart, lung, liver, spleen, kidneys, stomach, small intestine, colon, muscle, and tumor. The organ weight was measured. The radioactivity in blood and organs was determined by a 1470 WIZARD gamma counter (PerkinElmer). The percentage of injected dose per gram of tissue (%ID/g) was calculated.

Data set [2] in a line: in vivo. The settings on record: mouse, iv, 148 MBq/kg/mouse, total radioactivity. The procedure: as §1
In data set [3] the test system is CD166^+HCT15 xenograft mice. The settings on record: mouse, in vivo. On the procedure:
The male BALB/c nude mice were subcutaneously inoculating CD166^+HCT15 cells (1 × 10^6 cells) for 2 weeks, and then the ^111In-DTPA, ^111In-DTPA-G18C, ^111In-DTPA-CD166tp-C, and ^111In-DTPA-CD166tp-G18C (740 MBq/kg/mouse) were intravenously injected into mice. The imaging of CD166 in mice at 2, 4, 24, and 48 h were detected by a nano single-photon emission computed tomography/computed tomography (nanoSPECT/CT; Mediso Medical Imaging Systems, Budapest, Hungary). For competitive study, the CD166^+HCT15-derived xenograft mice were pre-treated with CD166tp-G18C (0, 10, and 50 mg/kg) for 6 h. Every mouse then received 740 MBq/kg ^111In-DTPA-CD166tp-G18C via intravenous injection for 24 and 48 h. The competitive CD166 images were observed by a nanoSPECT/CT.

In data set [4] the test system is CD166^+HCT15 and CD166^−HCT15 cells. Nature of the data set: Cell viability assay (CCK-8), cell resistance. The settings on record: 1, 5 and 50 μM, 24 h; absorbance 450 nm; Fig. 3b; n ≥ 5.
Data set [5] concerns CD166^+HCT15 cells. Nature of the data set: CD166tp-G18C binding assay by flow cytometry. It is filed as cell-based, human. The settings on record: Fig. 5a. On the procedure:
For CD166 detection on the cellular surface, the optimized density (1 × 10^6 cell) of CD166^+HCT15 and CD166^−HCT15 cells were added with 1 mL PBS with 20 μg IgG-FITC and FITC-conjugated CD166 antibody (CD166ab-FITC) for 1 h. For the CD166tp-G18C binding assay, CD166^+HCT15 and CD166^−HCT15 cells were added with 1 mL PBS with 20 μg CD166tp-G18C-FITC and G18C-FITC for 1 h. In competitive group, CD166^+HCT15 cells were pre-treated with CD166tp-G18C (20 μg/mL) for 1 h and then added 20 μg/mL CD166tp-G18C-FITC for 1 h. After PBS washing, cells were collected for flow cytometric analysis using a FACSCalibur Flow Cytometer (BD Bioscience, San Diego, CA, USA).
(In general: In flow cytometry, cells or beads pass a laser one at a time.)

The target of data set [6] is T1, CD166 protein (Homo sapiens, UniProt Q13740).
T1 sequence (Q13740 28-583): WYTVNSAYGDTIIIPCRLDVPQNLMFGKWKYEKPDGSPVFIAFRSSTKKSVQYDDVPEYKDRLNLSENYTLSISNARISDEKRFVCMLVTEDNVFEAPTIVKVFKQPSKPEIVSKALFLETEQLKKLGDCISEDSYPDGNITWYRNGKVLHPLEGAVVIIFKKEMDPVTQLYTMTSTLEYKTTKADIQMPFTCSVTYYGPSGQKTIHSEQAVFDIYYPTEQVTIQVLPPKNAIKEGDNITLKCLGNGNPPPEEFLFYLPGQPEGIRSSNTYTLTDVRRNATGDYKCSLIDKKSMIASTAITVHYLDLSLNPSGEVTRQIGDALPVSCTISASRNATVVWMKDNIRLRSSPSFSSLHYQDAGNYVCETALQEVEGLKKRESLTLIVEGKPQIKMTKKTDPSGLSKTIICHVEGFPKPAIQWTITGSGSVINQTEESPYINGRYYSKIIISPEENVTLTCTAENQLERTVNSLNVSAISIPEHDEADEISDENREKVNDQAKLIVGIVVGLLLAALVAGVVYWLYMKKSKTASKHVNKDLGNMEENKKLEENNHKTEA
As to the kind of experiment: CD166tp-G18C and CD166 protein interaction assay (immunoprecipitation with CD166 antibody). It is filed as binding. Also noted: endogenous in cells; host or cells: HCT15 cells (sorted CD166+ and CD166- populations). The settings on record: Fig. 5c. On the procedure: HCT15 cells (1 × 10^6 cells) were incubated with 20 μg/mL CD166tp-G18C-FITC in the presence or absence of 20 μg/mL CD166tp-G18C at 4 °C for 1 h. After treating immunoblotting lysis buffer with protease inhibitors cocktail (Hycell International, Taipei, Taiwan), the mixture solution was centrifuged at 14,000 rpm (4 °C) for 10 min. The supernatant was treated with or without 2 μg/mL biotinylated-CD166 antibody (Novus Biologicals, Littleton, CO, USA)-conjugated streptavidin agarose beads (Sigma-Aldrich) at 4 °C overnight. In the competitive group, cells were pre-treated with CD166tp-G18C (20 μg/mL) for 1 h at 4 °C. The fluorescence of immunoprecipitates was detected by an ELISA reader (Perkin Elmer).

Data set [7] deals with CD166^+HCT15 cells. Nature of the data set: CD166tp-G18C binding assay by immunofluorescence staining. To be noted: fixed, 20 μg/mL, 2 h, Fig. 5b. The data set is classed as cell-based, human. On the procedure: (§2) The CD166tp-G18C binding assay was determined by immunofluorescence staining in both CD166^−HCT15 and CD166^+HCT15 cells. Briefly, cells (1 × 10^4 cells) were seeded in 4-well Millicell EZ slides (Merck Millipore, Germany) with culture medium at 37 °C and 5% CO2 for 16 h. Cells were fixed using 4% paraformaldehyde for 30 min at 37 °C. The fixed-cells were then incubated in the SuperBlock Blocking Buffers (Thermo Fisher Scientific, USA) for 30 min. Cells were incubated with CD166tp-G18C-FITC (20 μg/mL) for 2 h. DAPI was used to stain the cell nuclei at a concentration of 0.2 μg DAPI/mL PBS for 10 min. The images were captured by a fluorescence microscope (BX53, Olympus, Japan) coupled to a CCD camera. Digital images were analyzed by an Image-Pro Plus software (Media Cybernetics, USA).

Data set [8] concerns CD166^−HCT15 cells. The description is as above. The settings on record: fixed, 20 μg/mL, 2 h, Fig. 5b. It is filed as cell-based, human. The procedure: as §2

Residues, ends and D or L forms follow the SMILES beside them. No end group written: not given here. *: point of attachment. X1 = O=C(O)CN(CCN(CCN(CC(=O)O)CC(=O)O)C(CCCCNC(=O)CCCN1C(=O)CC(*)C1=O)C(=O)O)CC(=O)O

Usually tissue uptake stands for the share of the injected amount in each gram of the tissue.

Regarding `CC(C)C[C@H](NC(=O)[C@H](CC(N)=O)NC(=O)[C@H](CO)NC(=O)[C@H](CC(N)=O)NC(=O)CNC(=O)[C@H](CCC(=O)O)NC(=O)[C@H](CO)NC(=O)[C@@H](N)CC(=O)O)C(=O)N[C@@H](CS)C(=O)N[C@@H](CO)C(=O)N[C@@H](CCC(N)=O)C(=O)N[C@@H](CO)C(=O)NCC(=O)NCC(=O)NCC(=O)NCC(=O)NCC(=O)NCC(=O)NCC(=O)NCC(=O)NCC(=O)NCC(=O)NCC(=O)NCC(=O)NCC(=O)NCC(=O)NCC(=O)NCC(=O)NCC(=O)NCC(=O)N[C@@H](CSC1CC(=O)N(CCCC(=O)NCCCCC(C(=O)O)N(CCN(CC(=O)O)CC(=O)O)CCN(CC(=O)O)CC(=O)O)C1=O)C(=O)O` (some centres unmarked) [^111In-DTPA-CD166tp-G18C, metal not drawn] (H-DSEGNSNLCSQSGGGGGGGGGGGGGGGGGGC(X1)-OH; N-terminus and C-terminus assumed), in data set [1], the “ratio of tumor-to-blood (T/B)” value was “remarkably increased”, the “ratio of tumor-to-muscle (T/M)” value is listed as “remarkably increased” and the tumor-to-blood ratios is given as 5.94 ± 0.51. Besides, in data set [2], the tissue to tissue ratio at 48 h came out at 48.9 ± 5.03, the tissue uptake at 4 h is 10.1 ± 1.26 %ID/g and the tissue uptake at 24 h was determined as 11.1 ± 2.2 %ID/g. Besides, in data set [3], the “difference of counts between background and tumor area (nanoSPECT/CT)” value was “about 8 times”.

For the compound `COc1cccc2c1C(=O)c1c(O)c3c(c(O)c1C2=O)C[C@@](O)(C(=O)CO)C[C@@H]3O[C@H]1C[C@H](N)[C@H](O)[C@H](C)O1` [doxorubicin], the “resistance of CD166^+HCT15 cells as compared to CD166^−HCT15 cells (cell viability, CCK-8)” value in data set [4] is recorded as “significant resistance”.

With “DSEGNSNLCSQSGGGGGGGGGGGGGGGGGGC [CD166tp-G18C, Glycine18-Cysteine-linked CD166-targeted peptide]”, the “competition: effect of pretreatment on binding efficiency of CD166tp-G18C-FITC (flow cytometry)” value in data set [5] (CD166^+HCT15 cells pre-treated with 20 μg/mL for 1 h, then 20 μg/mL CD166tp-G18C-FITC 1 h) is reported as “markedly decreased the binding efficiency of CD166tp-G18C-FITC”. The “competition: effect of pretreatment on CD166tp-G18C-FITC binding (immunoprecipitation assay)” value in data set [6] (pre-treated with 20 μg/mL for 1 h at 4 °C) is given as “could be inhibited”.

As to “CD166tp-G18C-FITC: FITC-labeled CD166tp-G18C (DSEGNSNLCSQSGGGGGGGGGGGGGGGGGGC; cysteine pairing not given here; also: FITC label, site not given here)”, in data set [5] (CD166^+HCT15 cells, 20 μg/mL, 1 h, n ≥ 3), the “fluorescence of CD166tp-G18C-FITC on cells (flow cytometry)” value is “significantly increased”. In addition, the “binding via CD166 protein (fluorescence of CD166 antibody immunoprecipitates)” value in data set [6] (CD166^+HCT15 cells, 20 μg/mL, 1 h, 4 °C, biotinylated-CD166 antibody 2 μg/mL, n ≥ 3) is listed as “could bind”. Also, the figures for the “binding ability by immunofluorescence” value in data set [7] and in data set [8] were “increased” and “but not in CD166^−HCT15 cells”, respectively.
